Data on 20 sequences can be found in the DeepSol protein solubility set.

This series in a line: soluble on expression in E. coli; label from the status in PepcDB or PDB records.
For “MGSDKIHHHHHHAKDKDAYRQYGINCIENGSYDDAVDAFQKALDQSVGSVGAEELDICYYKAKAQYLSGDVDGAIDTYTAIIDYNKDSDAYYLRGCIYFAKNDSDKGLKDFKTALSENNDNYELYLGVYETLSKYGMNDQGKEYLDNALKLKAKTADDYMQRGRIYTMLGDYDSAIKSLQKAIDEKLVKANYYMGEVYQKKGDNDSSQKYFKKYLDSGEADSYELMNMGQAQMDNGNYDTAITYFQNALELESVPNKQQITKAMIIAYEYSGDFATAKSKMEEYMKDYPDDEDAAREYQFLETR”, the “soluble on expression in E. coli” value is recorded as “not soluble”.
The same measure for “MGSDKIHHHHHHLGILDAPAVQPSKVGLEALYAKTSASLGLFHTSLAGRHFAPCKILVVGDSISEGAGATLNIRNRWQDRLKENLRSRFPTDGSPGTTLHYVPAMNVVNMPGDMAVRSAGVTTGTSFGFGARHAQLTAAGHTVTFTVTGTSAKVVYPKSSGGGSFTWQVDGGTVSSAVSQSAGSLTDGFTTDIPLGASGSHTVVIAWVSGGSVFIDGLLVYNGDETKGIHVIDGAHSGWGAQNFQLNGIQFYQGSLTTMLQPSLVIIALGINDFAFGSLSIANYKIHMQSNIDRYRGAIPTKPPSILLVAMHRRSPVSAVATWAEYVQAMKELAQANDGVAFLDLSARLPQVSGDTRGLYADEVHPANLGHSAIADNVTSFIVPR”: “not soluble”; for “MPKLILLGDSTLDNFNWVPNKATVTDHLRRQLPKMEILNFAVDGFTTDSILYGEYKDCAVTSSQHTHKYFEPLKALENEQDVEHIVLSVLGNDFRIQLSKLIFMAPEERPKAIEQLINHIIKNYIQVVKEIRKVQPNAKLSIVLQYTPYVENDPYLIYFLMDKLFHHGTVSHGFLSYLQIMYYSIFGLNSKHEQQALNLLHKLMAKVYRNVFNELGDNSLAIIDLASSFDYRNSKLYKAQIEPSDEGGKLIASLITHTITHHDFQNESMLYAKPPLQPNPKILAVPLTKLKKDWFPQQIYVTQEQAITAFKQAYLLQLNKDRQSYLGLYSFFARSNVDFEHATLEKLIVHAQNYSTKKTGYRTLKVMQNLGWLTEQGNIKEESGIVRLLKN”: “not soluble”.
In the case of “MKALLPGLYLLPVPIPYPLKTVNLYLLQGAGEVALVDTALGTRAARGALELHLAELGLCFQDVKTILLTHHHPDHYGLSGFFEGLGARVFLHEEEFARGHRFWREPEAFAEASWRLFLDHGTPEGALQGIRETVEKTRERVHPPQNPLPLRDGEALEVAGKRLRVLWTPGHADGHAAFYLEEEGVLLAGDALLEKVSPNVGLWAYTRENPLKDFLRSLDRLADLGARVAYAGHFGPIADVRQRAEELKAHHQARLEALLALLDGPKTAWELSLHLFPQELDPAGRRFAFAETLAHLEYLREEGAVGRGGPPYRYFRR”, the “soluble on expression in E. coli” value is “soluble”.
In the case of “MSLDKEYRITLLHNVAHYGHAEATRILLAAGARVNAVNGEGNTPLFAAVHEGHDDVARILLDAGADVTIANSYWYTPLREACRRGNTGMVRLLLEKGADVNITDNKGFTPLHAAVSAEALEAATLILDSGADINIAGRYGDTPLHYAVGLGYEEFVRLFLARGADPTIRNDRGLTPRQLAEERGFASIVELFRNWGKNTEGHHHHHH”, the “soluble on expression in E. coli” value was “soluble”.
The entry for “GMNQRDVILDCEKKLLTAIQNNDVESLEVLLHDDLLFIIPSGETVTKETDIAAYSSGKIALRAVVPSDYIIRIIHDTVVVSVNIEIKGEYMEHTLDNTFRYLRVWKLFDGNWKVIAGSCTAIG” is “soluble”; for “MSLQIMLCAISNIASGNCSEDCKYCTQSAHVKTDIQKYRRKELSQIVLEAKMAKKNEALGFCLVTAGLGLDDEKLEYVCEAAKAVQKEVPNLLLIACNGMASVEQLKELKKAGIFSYNHNLESSKEFFPQICTTHTWESRFQTNLNAKEAGLMLCCGGIYGMGESEEDRLSFRKSLQELQPFSTPINFFIANENLKLQVPRLSADEALKIVRDTKEALPQSVVMVAGGREVVLRERQYEIFQAGAGAIVIGDYLTTKGEEPSQDIIKLKEMGFTFASECHEGHHHHHH” it is “not soluble”.
Take “MNRVDLSIFIPDSLTAETGDLKIKTYKVVLIARAASIFGVKRIVIYHDDADGEARFIRDILTYMDTPQYLRRKVFPIMRELKHVGILPPLRTPHHPTGKPVTGEYRQGLTVKRVKKGTLVDIGADKLALCREKLTVNRIMSFRVVRLGKEILIEPDEPEDRYWGYEVLDTRRNLAESLKTVGADVVVATSRNASPITSILDEVKTRMRGAREAAILFGGPYKGLPEIDADIWVNTLPGQCTETVRTEEAVLATLSVFNMLTQIDEKDE”: the “soluble on expression in E. coli” value is reported as “soluble”.
The entry for “MGSDKIHHHHHHMNIKDLQYYVSLTQLKNFSLVAAQFHVSQPTISAAIRRLETELKTQLLIRANPHLPVALTTTGIQVQRHANQILLEHQLMCQEVAHTTTDQLVIGMPPIIEINYFPRIASQLPQALFSQIQPISQGSLAALKGLKNGQLDLAVLAYLNEFTDTTIQLTTFDTQSFSIVVPTDDPLATNSQLQFRSLRHQHFVALKDNFVHRQAFRQLSHQNHVRPTIVFESNEIGSILNMVRQHVGIALLSNAVQLPAGLQRLPLTDAQAPTFNVGVAYRHSMTFSPTQADLIQRLTAAFQSVDWRAY” is “not soluble”; for “TFFTATDGNHGRGVAWTANKLGQKSVVLMPKGSSEFRLNKIKGEGADASITDLNYDDAVRLANDYAEADDHGVMVQDTAWDGYEEIPAWIMQGYGTMAQEAIEQLKEYGVDRPTHVFVQAGVGSLAGAVQGYVASIYDECPITVVVEADEADCYYKSAEAGDGKPRFVGGDMPTIMAGLACGEPNTIGFEVLKNHAAAFVSAPDWVSAKGMRTLGNPLNGDEKVISGESGAVTTGLLVAAMEREDLADLRKDLKLDENSRILLISTEGDT” it is “not soluble”; for “MGGSHHHHHHGMASALKEKKSQETEVTSTLEQQKICLVLESCLKKNSDEEGSQEKGGDDSQQKFIAHVPVPSQQEIEEALVRRKKMELLQKYASETLQAQSEEARRLLGY” it is “not soluble”.
Regarding “MLKVKKEVLEKMIKQAERDYPYETCGLLIGKSEGGIRIAYEAFETPNANPDRKHDRYEIAPKDYMRAEDYAISKGMEIVGVYHSHPDHPDRPSQFDLQRAFPDLSYIIFSVQKGKVASYRSWELKGDKFEEEEVEVFE”, the “soluble on expression in E. coli” value is “not soluble”.
As for “MSNSSMSVVILAAGKGTRMYSDLPKVLHPLAGKPMVQHVIDAAMKLGAQHVHLVYGHGGELLKKTLADPSLNWVLQAEQLGTGHAMQQAAPHFADDEDILMLYGDVPLISVDTLQRLLAAKPEGGIGLLTVKLDNPSGYGRIVRENGDVVGIVEHKDASDAQREINEINTGILVANGRDLKRWLSLLDNNNAQGEFYITDIIALAHADGKKIATVHPTRLSEVEGVNNRLQLSALERVFQTEQAEKLLLAGVMLLDPSRFDLRGELTHGRDITIDTNVIIEGHVILGDRVRIGTGCVLKNCVIGDDSEISPYTVLEDARLDANCTVGPFARLRPGAELAEGAHVGNFVEIKKARLGKGSKAGHLSYLGDAEIGAGVNIGAGTITCNYDGANKFKTIIGDDVFVGSDTQLVAPVTVANGATIGAGTTVTRDVAENELVISRVKQVHIQGWKRPVKKK”, the “soluble on expression in E. coli” value is on record as “soluble”.
On to “MGSDKIHHHHHHMTKRAYQYRFYPTPEQAQLLARTFGCVRFVYNAVLRYRTDAFYQRQERIGYVEANAYLTRMKKADETAFLNEVSSVPLQQCLRHQQAAFKHFFEGRARYPAFKNKRHRQAAEFTRSAFKYRNGQLFLAKCKEPLAIRWSRELPSEPTTITISKDSAGRYFVSCLCEFTPETLPVTPRMTGIDLGLKDLFITDQGERIGNPRHTAKYAARLAKAQRRLSKKKLGSANRAKARKRVARLHAKISDCRMDRLHKLSRRLINENQVVCVESLKVKNMLRNPSLAKAIADAGWGEFARQLEYKAQWAGRQLVRIDPWYPSSKRCSDCGHIKDALPLSVRAWDCPACGVTHDRDINAARNIKAAGLAVLALGENVSGMEPVSVSGSR”, for which the “soluble on expression in E. coli” value is recorded as “not soluble”.
The same measure for “MKIYLVGGAVRDALLGLPVKDKDWVVVGATPQEMLDAGYQQVGRDFPVFLHPQTHEEYALARTERKSGSGYTGFTCYAAPDVTLEADLQRRDLTINALARDDAGQIIDPYHGRRDLEARLLRHVSPAFGEDPLRVLRVARFAARYAHLSFRIADETLALMREMTAAGELEHLTPERVWKETENALTTRNPQVYFQVLRDCGALRVLFPEIDALFGVPAPAKWHPEIDTGVHTLMTLSMAAMLSPQLDVRFATLCHDLGKGLTPKNLWPRHHGHGPAGVKLVEQLCQRLRVPNDLRDLAKLVAEYHDLIHTFPILQPKTIVKLFDAIDAWRKPQRVEQIALTSEADVRGRTGFEASDYPQGRWLREAWQVAQAVPTKEVVEAGFKGIEIREELTKRRIAAVANWKEKRCPNPAS”: “not soluble”.
Regarding “AGNTSYFLRRKIFRKIMHITAPSHDQYGSSTLLVRLTNDVYLMEIMTFDFL”, the “soluble on expression in E. coli” value is reported as “not soluble”.
Take “MGSDKIHHHHHHMKKVTLLVLDGFGVGAMADCEKVKPEDVNANTYKHLREAVDIHIPTLYQLGLGNIVDHLDTARAAYGRCDLAHHGADTFMGHQELMGSKPGVPQKRLMSEVGATIKKNLEKHGYDVRDPVEGAPVLLVNEAVVVGDNLESEVGNIINVVGDFRKLSFEQTIEVGKVVRSSVDTSRVIVYGNKEKTSIDLILSTIKERHPGQWGVDSPKANVYGEGYQVLHLGYGVDYEKQFAHLAEKQRLPVYRIGKTADVIQASGYHNPVVSTRKVLEVYQHEYSKSERDSVFLVNVQETDLAGHKEDCLWYKEVIEEVDRFLASFIDELDEEDLLIITADHGNDPTIGHSNHTREQTPVIIVGPQVRPISIGTRQTMADLAATMADYMGVAPPQYGTSFLHQILR”: the “soluble on expression in E. coli” value was “not soluble”.
On to “SSQSISPMRSISENSLVAMDFSGQKSRVIENPTEALSVAVEEGLAWRKKGSLRLGTHGS”, for which the “soluble on expression in E. coli” value was “soluble”.
Turning to “APRSVAMVVPQGSDIRQLSDLRGKRIALNKGSNVHWLLLQILEDAGLGLNDVRVVYTPPKYPLTASDYLAVDAWMMWDPLLSDAEHTGELRVVASGEGRVNNHQFYLSRRDYLAQHGDIMRRLLTELTHTGQFIDSHRGEAARLLSAELGI”, the “soluble on expression in E. coli” value is given as “not soluble”.
Turning to “MGSDKIHHHHHHMKRIDLNGFWSVRDNEGRFSFEGTVPGVVQADLVRKGLLPHPYVGMNEDLFKEIEDREWIYEREFEFKEDVKEGERVDLVFEGVDTLSDVYLNGVYLGSTEDMFIEYRFDVTNVLKEKNHLKVYIKSPIRVPKTLEQNYGVLGGPEDPIRGYIRKAQYSYGWDWGARIVTSGIWKPVYLEVYRARLQDSTAYLLELEGKDALVRVNGFVHGEGNLIVEVYVNGEKIGEFPVLEKNGEKLFDGVFHLKDVKLWYPWNVGKPYLYDFVFVLKDLNGEIYREEKKIGLRRVRIVQEPDEEGKTFIFEINGEKVFAKGANWIPSENILTWLKEEDYEKLVKMARSANMNMLRVWGGGIYEREIFYRLCDELGIMVWQDFMYACLEYPDHLPWFRKLANEEARKIVRKLRYHPSIVLWCGNNENNWGFDEWGNMARKVDGINLGNRLYLFDFPEICAEEDPSTPYWPSSPYGGEKANSEKEGDRHVWYVWSGWMNYENYEKDTGRFISEFGFQGAPHPETIEFFSKPEEREIFHPVMLKHNKQVEGQERLIRFIFGNFGKCKDFDSFVYLSQLNQAEAIKFGVEHWRSRKYKTAGALFWQFNDSWPVFSWSAVDYFKRPKALYYYARRFFAEVLPVLKKRDNKIELLVVSDLRETKEVSLRLAAYEKKGEKVFEKTYRTVLPADGVSLVDRVELPDDLFFFVEAEVDGVKYRNYRVFRKWRDLELPDPEISLEDMGELIELTAQRPAFGVKILSDEVPEDDFLFLEPGRSITLKKPDGVRGVKSLFDYLR”, the “soluble on expression in E. coli” value is “not soluble”.
